Measured values reported in US20240033343A1.
pKd: −log10 of the molar value.

Legend:
[1] = target: W2GSG (SARS-CoV-2; HIV) (UniProt P0DTC2)
[2] = target: S1GGSGG (SARS-CoV-2) (UniProt P0DTC2)
[3] = target: AAAA (SARS-CoV-2; HIV) (UniProt P0DTC2)
[4] = target: W1GGSG (SARS-CoV-2; HIV) (UniProt P0DTC2)
[5] = target: W1GSG (SARS-CoV-2) (UniProt P0DTC2)
[6] = target: S2GGSGG (SARS-CoV-2) (UniProt P0DTC2)
[7] = target: RAA (SARS-CoV-2; HIV) (UniProt P0DTC2)
[8] = target: M1GGSGG (SARS-CoV-2) (UniProt P0DTC2)
[9] = target: SARS-CoV-2 Sclamp (SARS-CoV-2) (UniProt P0DTC2)
[10] = target: W2GGSGG (SARS-CoV-2; HIV) (UniProt P0DTC2)
[11] = target: S1GSG (SARS-CoV-2) (UniProt P0DTC2)
[12] = target: S2GSG (SARS-CoV-2) (UniProt P0DTC2)

Substance: CR3022 (antibody)
- pKd [1]: 8.69
- pKd [2]: 9.16
- pKd [3]: 9.13
- pKd [4]: 9.05
- pKd [5]: 8.97
- pKd [6]: 8.93
- pKd [7]: 9.04
- pKd [8]: 9.24
- pKd [9]: 9.24
- pKd [10]: 8.96
- pKd [11]: 8.99
- pKd [12]: 8.99
